Reference: patent US20220298218A1 (ANTAG THERAPEUTICS, published 2022)
*1 amine or outer side, *2 acyl side, *3 side chain or, on linkers, in order; H or OH if unused. Where no end group is shown, it is not given here. Side-chain parts run from the residue outwards. The star is where a group is joined. C18 diacid = O=C(O)CCCCCCCCCCCCCCCCC(=O)*; γGlu = O=C(O)[C@H](CCC(=O)[*:2])N[*:1]; AEEA = NCCOCCOCC(=O)O

T1: human GIP receptor (human, UniProt P48546 22-466)
T1 sequence (looked up): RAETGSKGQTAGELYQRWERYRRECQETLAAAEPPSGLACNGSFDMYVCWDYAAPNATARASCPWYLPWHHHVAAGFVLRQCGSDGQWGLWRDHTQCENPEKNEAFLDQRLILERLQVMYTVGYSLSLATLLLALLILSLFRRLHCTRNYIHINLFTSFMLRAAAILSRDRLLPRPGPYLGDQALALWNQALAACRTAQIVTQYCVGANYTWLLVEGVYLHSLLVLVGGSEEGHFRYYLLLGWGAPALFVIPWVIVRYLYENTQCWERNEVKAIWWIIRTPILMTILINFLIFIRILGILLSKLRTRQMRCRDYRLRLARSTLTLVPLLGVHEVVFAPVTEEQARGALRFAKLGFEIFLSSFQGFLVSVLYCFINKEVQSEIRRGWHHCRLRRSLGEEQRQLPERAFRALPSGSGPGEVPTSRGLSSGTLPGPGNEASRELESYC

B1: AT548 (peptide)
peptide: EGTFISDYSIAMDKIHQK([AEEA-AEEA-γGlu-C18 diacid])DFVNWLLAQKGKKNDW-OH
modifications: N-terminus assumed
SMILES: CC[C@H](C)[C@H](NC(=O)[C@H](CO)NC(=O)[C@H](Cc1ccc(O)cc1)NC(=O)[C@H](CC(=O)O)NC(=O)[C@H](CO)NC(=O)[C@@H](NC(=O)[C@H](Cc1ccccc1)NC(=O)[C@@H](NC(=O)CNC(=O)[C@@H](N)CCC(=O)O)[C@@H](C)O)[C@@H](C)CC)C(=O)N[C@@H](C)C(=O)N[C@@H](CCSC)C(=O)N[C@@H](CC(=O)O)C(=O)N[C@@H](CCCCN)C(=O)N[C@H](C(=O)N[C@@H](Cc1c[nH]cn1)C(=O)N[C@@H](CCC(N)=O)C(=O)N[C@@H](CCCCNC(=O)COCCOCCNC(=O)COCCOCCNC(=O)CC[C@H](NC(=O)CCCCCCCCCCCCCCCCC(=O)O)C(=O)O)C(=O)N[C@@H](CC(=O)O)C(=O)N[C@@H](Cc1ccccc1)C(=O)N[C@H](C(=O)N[C@@H](CC(N)=O)C(=O)N[C@@H](Cc1c[nH]c2ccccc12)C(=O)N[C@@H](CC(C)C)C(=O)N[C@@H](CC(C)C)C(=O)N[C@@H](C)C(=O)N[C@@H](CCC(N)=O)C(=O)N[C@@H](CCCCN)C(=O)NCC(=O)N[C@@H](CCCCN)C(=O)N[C@@H](CCCCN)C(=O)N[C@@H](CC(N)=O)C(=O)N[C@@H](CC(=O)O)C(=O)N[C@@H](Cc1c[nH]c2ccccc12)C(=O)O)C(C)C)[C@@H](C)CC
B2: AT549 (peptide)
peptide: EGTFISDYSIAMDKIHQK([AEEA-AEEA-γGlu-C18 diacid])DFVNWLLAQKGKKNDW-NH2
modifications: N-terminus assumed
SMILES: CC[C@H](C)[C@H](NC(=O)[C@H](CO)NC(=O)[C@H](Cc1ccc(O)cc1)NC(=O)[C@H](CC(=O)O)NC(=O)[C@H](CO)NC(=O)[C@@H](NC(=O)[C@H](Cc1ccccc1)NC(=O)[C@@H](NC(=O)CNC(=O)[C@@H](N)CCC(=O)O)[C@@H](C)O)[C@@H](C)CC)C(=O)N[C@@H](C)C(=O)N[C@@H](CCSC)C(=O)N[C@@H](CC(=O)O)C(=O)N[C@@H](CCCCN)C(=O)N[C@H](C(=O)N[C@@H](Cc1c[nH]cn1)C(=O)N[C@@H](CCC(N)=O)C(=O)N[C@@H](CCCCNC(=O)COCCOCCNC(=O)COCCOCCNC(=O)CC[C@H](NC(=O)CCCCCCCCCCCCCCCCC(=O)O)C(=O)O)C(=O)N[C@@H](CC(=O)O)C(=O)N[C@@H](Cc1ccccc1)C(=O)N[C@H](C(=O)N[C@@H](CC(N)=O)C(=O)N[C@@H](Cc1c[nH]c2ccccc12)C(=O)N[C@@H](CC(C)C)C(=O)N[C@@H](CC(C)C)C(=O)N[C@@H](C)C(=O)N[C@@H](CCC(N)=O)C(=O)N[C@@H](CCCCN)C(=O)NCC(=O)N[C@@H](CCCCN)C(=O)N[C@@H](CCCCN)C(=O)N[C@@H](CC(N)=O)C(=O)N[C@@H](CC(=O)O)C(=O)N[C@@H](Cc1c[nH]c2ccccc12)C(N)=O)C(C)C)[C@@H](C)CC

Target: T1, human GIP receptor
Experiment: cell-based or functional assay

B1 and B2 are the same in “cAMP agonism % Emax” value: 0% for the first, 0% for the second.

With TFISDYK([γGlu-γGlu-C18])IAMDKIHQQDFVNWLLAQKGKKNDW-OH [AT561] the “cAMP agonism % Emax” value was 0%.

First: B1
Second: B2
The “cAMP antagonism” value of the first is 1.6-fold lower: 126 nM for the first, 200 nM for the second.

First: TFISDYK([AEEA-AEEA-γGlu-C18])IAMDKIHQQDFVNWLLAQKGKKNDW-OH [AT560]
Second: TFISDYK([γGlu-γGlu-C18])IAMDKIHQQDFVNWLLAQKGKKNDW-OH [AT561]
The “cAMP antagonism” value of the first is 2.1-fold higher: 23.3 nM for the first, 11.2 nM for the second.

First: B1
Second: B2
The “cAMP antagonism % inhib” value of the first is higher: 86% for the first, 80% for the second.

Going from TFISDYK([AEEA-AEEA-γGlu-C18])IAMDKIHQQDFVNWLLAQKGKKNDW-OH [AT560] to TFISDYK([γGlu-γGlu-C18])IAMDKIHQQDFVNWLLAQKGKKNDW-OH [AT561], the “cAMP antagonism % inhib” value falls from 100% to 97%.

Going from B1 to B2, the “cAMP antagonism pIC50” value falls from 6.9 to 6.7.

First: TFISDYK([AEEA-AEEA-γGlu-C18])IAMDKIHQQDFVNWLLAQKGKKNDW-OH [AT560]
Second: TFISDYK([γGlu-γGlu-C18])IAMDKIHQQDFVNWLLAQKGKKNDW-OH [AT561]
The “cAMP antagonism pIC50” value of the first is lower: 7.6 for the first, 8 for the second.
